Three molecules from patent US20220267463A1 (Hoffmann-La Roche, published 2022) can be followed below.

Assay [1] deals with T1, carcinoembryonic antigen (CEA) on MKN-45 cells (human, UniProt P06731 35-685).
T1 construct: whole, on cells; also called CEACAM5; Carcinoembryonic antigen-related cell adhesion molecule 5
T1 sequence (looked up): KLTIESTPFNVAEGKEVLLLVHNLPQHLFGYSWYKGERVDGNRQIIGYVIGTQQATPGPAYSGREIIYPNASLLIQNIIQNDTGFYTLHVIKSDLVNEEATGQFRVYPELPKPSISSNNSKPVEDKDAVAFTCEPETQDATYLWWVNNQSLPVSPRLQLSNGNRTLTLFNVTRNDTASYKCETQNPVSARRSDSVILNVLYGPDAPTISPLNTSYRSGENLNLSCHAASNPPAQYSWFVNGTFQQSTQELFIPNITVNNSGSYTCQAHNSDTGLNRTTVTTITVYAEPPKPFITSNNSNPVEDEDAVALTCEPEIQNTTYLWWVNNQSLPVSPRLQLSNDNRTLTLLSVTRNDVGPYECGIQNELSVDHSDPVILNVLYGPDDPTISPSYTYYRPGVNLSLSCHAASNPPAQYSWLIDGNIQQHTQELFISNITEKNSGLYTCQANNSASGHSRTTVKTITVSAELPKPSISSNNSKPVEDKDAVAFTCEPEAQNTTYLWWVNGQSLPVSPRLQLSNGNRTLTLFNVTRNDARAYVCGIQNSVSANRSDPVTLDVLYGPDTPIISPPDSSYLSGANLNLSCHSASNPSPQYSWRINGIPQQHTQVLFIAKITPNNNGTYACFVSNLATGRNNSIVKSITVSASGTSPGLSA
As to the kind of experiment: flow cytometry on MKN45 cells, hemibody mixed 1:1 with human ISO control, detection with anti-human IgG(H+L) (title: A488; legend box: FITC). In general terms: In flow cytometry, cells or beads pass a laser one at a time.
Method: To assess the functionality of the split antibodies or hemibodies, MKN-45 cells were detached from the culture vessel using accutase at 37° C. for 10 minutes. Subsequently, the cells were washed twice in PBS, and seeded into 96 well v-bottom plates to a final density of 4×10⁶ cells/well.
Subsequently, the cells were incubated for 1 h on ice and washed twice in PBS. The cell pellet was resuspended and 40 μl/well of detection reagent was added, either <human IgG(H+L)>FITC, (10 μg/ml) or Pb_Dotam_FITC 1:100=>(10 μg/ml) in PBS/5% FCS. After 60 min incubation on ice, the cells were washed twice in PBS and resuspended in 200 μl PBS/5% FCS for measurement of FITC fluorescence using a FACS canto.

Assay [2] deals with T1, carcinoembryonic antigen (CEA) on …. As to the kind of experiment: flow cytometry on MKN-45 cells, detection with anti-huIgG(H+L)-Alexa488. As to the method:
MKN-45 cells were detached from the culture bottle using Trypsin and were counted using a Casy cell counter. After pelleting at 4° C., 300 g the cells were resuspended in FACS Buffer (2.5% FCS in PBS), adjusted to 2.0E+06 cells/mL dispensed to 96-well PP V-bottom-Platte (25 μL/well=5.0E+04 Zellen/well).
The CEA specific SPLIT antibodies (P1AF0712 or P1AF0713 respectively) were adjusted to 40 μg/mL in FACS buffer, resulting in a final concentration of 10 μg/mL. […] The cells were then washed twice in FACS buffer and resuspended in 70 μl/well FACS buffer for measurement using a FACS Canto (BD, Pharmingen). […] Both antibodies were added to the cells either separated followed by buffer or combined and incubated at 4° C. for 1 h. The cells were then washed twice in FACS buffer. After washing, the cells were resuspended in 50 μL FACS-buffer containing secondary antibody (<huIgG(H+L)>-Alexa488, c=10 μg/mL) and incubated 1 h at 4° C.

As usually defined, the EC50 (read off the curve) is the midpoint of the concentration-response curve. High values mean a need for much substance, low ones an effect from little substance. Broadly, the EC50 is the midpoint of the concentration-response curve. Read a low EC50 as greater potency.

B1: PRIT Split Antibody with DOTAM-VH-P1AD8749 (antibody, human IgG1, kappa, L234A L235A)
heavy 1: QVQLVQSGAEVKKPGASVKVSCKASGYTFTEFGMNWVRQAPGQGLEWMGWINTKTGEATYVEEFKGRVTFTTDTSTSTAYMELRSLRSDDTAVYYCARWDFAYYVEAMDYWGQGTTVTVSSASTKGPSVFPLAPSSKSTSGGTAALGCLVKDYFPEPVTVSWNSGALTSGVHTFPAVLQSSGLYSLSSVVTVPSSSLGTQTYICNVNHKPSNTKVDKKVEPKSCDKTHTCPPCPAPEAAGGPSVFLFPPKPKDTLMISRTPEVTCVVVDVSHEDPEVKFNWYVDGVEVHNAKTKPREEQYNSTYRVVSVLTVLHQDWLNGKEYKCKVSNKALGAPIEKTISKAKGQPREPQVCTLPPSRDELTKNQVSLSCAVKGFYPSDIAVEWESNGQPENNYKTTPPVLDSDGSFFLVSKLTVDKSRWQQGNVFSCSVMHEALHNHYTQKSLSLSPG
heavy 2: not shown
light: DIQMTQSPSSLSASVGDRVTITCKASAAVGTYVAWYQQKPGKAPKLLIYSASYRKRGVPSRFSGSGSGTDFTLTISSLQPEDFATYYCHQYYTYPLFTFGQGTKLEIKRTVAAPSVFIFPPSDEQLKSGTASVVCLLNNFYPREAKVQWKVDNALQSGNSQESVTEQDSKDSTYSLSSTLTLSKADYEKHKVYACEVTHQGLSSPVTKSFNRGEC
notes: Full length anti-CEA (CH1A1A) human IgG1 with knob-into-hole and P329G LALA; one heavy chain carries the DOTAM VH at its C-terminus; No DOTAM VL; Bivalent for CEA; also called CEA-split-DOTAM-VH; P1_B
B1: the “EC50 (read off the curve)” value in assay [1] is approximately 1 µg/mL.

B2: P1AF0712 (antibody, human IgG1, kappa, L234A L235A)
heavy 1: not shown
heavy 2: QVQLVQSGAEVKKPGASVKVSCKASGYTFTEFGMNWVRQAPGQGLEWMGWINTKTGEATYVEEFKGRVTFTTDTSTSTAYMELRSLRSDDTAVYYCARWDFAYYVEAMDYWGQGTTVTVSSASTKGPSVFPLAPSSKSTSGGTAALGCLVKDYFPEPVTVSWNSGALTSGVHTFPAVLQSSGLYSLSSVVTVPSSSLGTQTYICNVNHKPSNTKVDKKVEPKSCDKTHTCPPCPAPEAAGGPSVFLFPPKPKDTLMISRTPEVTCVVVDVSHEDPEVKFNWYVDGVEVHNAKTKPREEQYNSTYRVVSVLTVLHQDWLNGKEYKCKVSNKALGAPIEKTISKAKGQPREPQVCTLPPSRDELTKNQVSLSCAVKGFYPSDIAVEWESNGQPENNYKTTPPVLDSDGSFFLVSKLTVDKSRWQQGNVFSCSVMHEALHNHYTQKSLSLSPGGGGGSGGGGSGGGGSGGGGSQAVVIQESALTTPPGETVTLTCGSSTGAVTASNYANWVQEKPDHLFTGLIGGHNNRPPGVPARFSGSLIGDKAALTIAGTQTEDEAIYFCALWYSDHWVIGGGTKLTVL
light: B1 light
notes: also called CEA specific SPLIT antibody (DOTA-VL); P6_A
As to B2, the EC50 in assay [2] turned out to be 2.7 µg/mL.

B3: P1AF0713 (antibody, human IgG1, kappa, L234A L235A)
heavy 1: B1 heavy 1
heavy 2: not shown
light: B1 light
notes: also called CEA specific SPLIT antibody (DOTA-VH-AST); P6_B
B3 registered an EC50 in assay [2] of 2.3 µg/mL.
